B1: TPR t1 (parent)
chain: GACCAAUCUGCCCUCAGAGCUCGAGAACAUCUUCGGAUGCAGAGGAGGCAGGCUUCGGUGGCGCGAUAGCGCCAACGUCCUCAACCUCCAAUGCAUCCCACCACAUGAUGAUGCCUGAAGAGCCUUGGUUUUUUG

The data set covers variants of B1. Nature of the data set: polymerase ribozyme fitness, log enrichment relative to wild type (log ratio); higher = more active; in vitro selection for triplet polymerase activity. Summed up: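 Libraries of mutants in each subunit of a heterodimeric triplet polymerase ribozyme were generated by PCR and transcribed. In triplicate, each went through one in vitro selection round: annealing with biotinylated primer, partner subunit and triplets; frozen incubation at −7 °C; gel excision of extended constructs; streptavidin-bead capture; RT-PCR. Fitness, taken from Illumina sequencing of input and output libraries, is the logarithm of a genotype's enrichment over wild-type enrichment, averaged across replicates with inverse-variance weights. The logarithm is base 2, and genotypes needed ≥10 input reads and ≥1 read per output to be kept.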
As for GACCAAUCUGCCCUCAGAGCUCGAGAACAUCUUCGGAUGCAGAGGAGGCAGGCUUCGGUGCCGCGAUAGCGCCAACGUCCUCAACCUCCAAUGCAUCCCACCACAUGAUGAUGCGUGAAGAGCCUUGGUUUUUUG, the “polymerase ribozyme fitness (log ratio)” value is -4.37.

As for GACCAAUCUGCCCUCAGAGCUCGAGAACAUCUUCGGAUGCAGAGGAGGCAGGCUUCGGUGCCGCGAUAGCGUCAACGUCCUCAACCUCCAAUGCAUCCCACCACAUGAUGAUGCCUGAAGAGCCUUGGUUUUUUG, the “polymerase ribozyme fitness (log ratio)” value was 0.273. Turning to GACCAAUCUGCCCUCAGAGCUCGAGAACAUCUUCGGAUGCAGAGGAGGCAGGCUUCGGUGCCGCGAUAGCGCCAACGUCCUCAACCUCCAAUGCAUCCCACCACAUGAUGAUGCCUGAAGCGCCUUGGUUUUUUG, the “polymerase ribozyme fitness (log ratio)” value was -0.241.

As for GACCAAUCUGCCCUCAGAGCUCGAGAACAUCUUCGGAUGCAGAGGAGGCAGGCUUCGGUGCCGCGAUAGCGCCAACGUCCUCAACCUCCCAUGCAUCCCACCACAUGAUGAUGCCUGAAGAGCCUAGGUUUUUUG, the “polymerase ribozyme fitness (log ratio)” value is -4.32. Turning to GACCAAUCUGCCCUCAGAGCUCGAGAACAUCUUCGGAUGCAGAGGAGGCAGGCUUCGGUGCCGCGAUAGCGCCAACGUGCUCAACCUCCAAAGCAUCCCACCACAUGAUGAUGCCUUAAGAGCCUUGGUUUUUUG, the “polymerase ribozyme fitness (log ratio)” value is -6.69. Consider GACCAAUCUGCCCUCAGAGCUCGAGAACAUCUUCGGAUGCAGAGGAGGCAGGCUUCGGUGCCGCGAUAGCGCCAACGUCCUAAACCUCCAAUGCAUCCCACCACAUGAUAAUGCCUGAAGAGCCUUAGUUUUUUG, for which the “polymerase ribozyme fitness (log ratio)” value is -3.64. With GACCAAUCUGCCCUCAGAGCUCGAGAACAUCUUCGGAUGCAGAGGAGGCAGGCUUCGGUGCCGCGAUAGCGCCAACGUCCUCAACCUCCAGUGCAUCCCACCACAUGAUGACGCCUGAAGAACCUUGGUUUUUUG, the “polymerase ribozyme fitness (log ratio)” value was -3.24. GACCAAUCUGCCCUCAGAGCUCGAGAACAUCUUCGGAUGCAGAGGAGGCAGGCUUCGGUGCCGCGAUAGCGCCAACGUCCUCAACCUCCAAUGCAUCCCUCCACAUGAUGAUGCCUGAAGAGCCUUGGUUUUUUG: the “polymerase ribozyme fitness (log ratio)” value was -2.98. As to GACCAAUCUGCCCUCAGAGCUCGAGAACAUCUUCGGAUGCAGAGGAGGCAGGCUUCGGUGCCGCGAUAGCGCCAUCGUCCUCAACCUCCAAUGCAUUCCACCACAUGAUGAUGCCUGAAGAGCCUUGGUUUUUUG, the “polymerase ribozyme fitness (log ratio)” value is -0.192. Turning to GACCAAUCUGCCCUCAGAGCUCGAGAACAUCUUCGGAUGCAGAGGAGGCAGGCUUCGGUGCCGCGAUAGCGCGAACGUCCUCAACCUCCAAUGCAUCCCACCACAUGAUGAUGCCUGAAGAGCCUUGGUUUUUGC, the “polymerase ribozyme fitness (log ratio)” value was -1.75.

As to GACCAAUCUGCCCUCAGAGCUCGAGAACAUCUUCGGAUGCAGAGGAGGCAGGCUUCGGUGCCGCGAUAGCGCCAACGUCCUCAACCUCCAAUGCAUCCCACCAUAUGAUGAUGCCUGAAGAGCCUUGGUUUUUUG, the “polymerase ribozyme fitness (log ratio)” value is -1.51. Turning to GACCAAUCUGCCCUCAGAGCUCGAGAACAUCUUCGGAUGCAGAGGAGGCAGGCUUCGGUGCCGCGAUAGCGCCAACGUCGUCAACCUCCAAUGCAUCCCACCACAUGAUGAUGCCUGAAGAGCCUUGGUUUUUUG, the “polymerase ribozyme fitness (log ratio)” value is -4.64. Turning to GACCAAUCUGCCCUCAGAGCUCGAGAACAUCUUCGGAUGCAGAGGAGGCAGGCUUCGGUGCCGCGAUAGCGCCAACGUCUUCAACCUCCAAUGCAUCCCACCACAUGAUGAUGCCUGAAGAGCCUUGGUUUUUUG, the “polymerase ribozyme fitness (log ratio)” value is -5.08. Take GACCAAUCUGCCCUCAGAGCUCGAGAACAUCUUCGGAUGCAGAGGAGGCAGGCUUCGGUGCCGCGAUAGCGCCAACGUCCUCAACCUCCAAUGCAUCCCACCCCAUGAUGAUGCCUGAAGAGCCUUGGUGUUUUG: the “polymerase ribozyme fitness (log ratio)” value is -6.98. Turning to GACCAAUCUGCCCUCAGAGCUCGAGAACAUCUUCGGAUGCAGAGGAGGCAGGCUUCGGUGCGCCGAUAGCGCCAACGUCCUCAACCUCCAAUGCAUCCCACCACAUGAUGAAGCCUGAAGAGCCUUGGUUUUUUG, the “polymerase ribozyme fitness (log ratio)” value was -4.63. For the variant GACCAAUCUGCCCUCAGAGCUCGAGAACAUCUUCGGAUGCAGAGGAGGCAGGCUUCGGUGCCGCGAUAGCGCCAACGUCCUCAACCUCCAAUGCAUCCCAACACAUGAUGAUGCCUGAAGAGCCUUGGUUUUUUG, the “polymerase ribozyme fitness (log ratio)” value is -2.74. With GACCAAUCUGCCCUCAGAGCUCGAGAACAUCUUCGGAUGCAGAGGAGGCAGGCUUCGGUGCCGCGAUAGCGCCAACGUCCUCAACCUCCAAUGCAUCCCAGCACAUGAUGAUGCCUGAAGAGCCUUGGUUUUUUG the figure was -3.98. For the variant GACCAAUCUGCCCUCAGAGCUCGAGAACAUCUUCGGAUGCAGAGGAGGCAGGCUUCGGUGCCGCGAUAGCGCCAACGUCAUCAACCUCCAAUGCAUCCCACCACAUUAUGAUGUCUGAAGAGCCUUCGUUUUUUG, the “polymerase ribozyme fitness (log ratio)” value was -5.81.

GACCAAUCUGCCCUCAGAGCUCGAGAACAUCUUCGGAUGCAGAGGAGGCAGGCUUCGGUGCCGCGAUAGCGCCAACGUCCUCAACCUCCAAUGCAUCCCACCACAUGAUGAUGUCUGAAGAGCCUUUGUUUUUUG: the “polymerase ribozyme fitness (log ratio)” value was -5.3. With GACCAAUCUGCCCUCAGAGCUCGAGAACAUCUUCGGAUGCAGAGGAGGCAGGCUUCGGUGCCGCGAUAGCGCCAACGUCUUCAACCUCCAAUGCAUCCCACCACAUGAUGAUGCCUGAAUAGCCUUGGUUUUUUG the figure was -7.22; with GACCAAUCUGCCCUCAGAGCUCGAGAACAUCUUCGGAUGCAGAGGAGGCAGGCUUCGGUGCCGAGAUAGCGCCAACGUCCUCAACCUCCAAUGGAUCCCACCACAUGAUGAUCCCUGAAGAGCAUUGGUUUUUUG, -6.83.

These data come from the RNAGym collection of RNA variant scans (doi:10.1073/pnas.2313332121).
